From the supplement of paper PMC9170038

The sequences below were run on K4 kissing-loop RNA reporter (assay: apparent KD of K4 kissing-loop reporter; higher = weaker reporter binding). Settings: Eterna round: R107; input ligand: theophylline 20 uM.
Method: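 RNA-MaP round R107: designed RNA switches with theophylline, tryptophan, arginine or FMN aptamers are transcribed on-chip within common flanks. They are titrated with a labelled K4 kissing-loop RNA reporter in RNA-MaP buffer (100 mM Tris pH 7.5, 80 mM KCl, 4 mM MgCl2), without ligand or with the indicated ligand. Median apparent KD per design.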
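Also: bound reporter read as fluorescence of individual clusters on recovered sequencing chips by microscopy, with normalized cluster intensities fitted with a binding model.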

| Sequence | apparent KD of K4 kissing-loop reporter [nM] |
| --- | --- |
| CCAUUCAUUUACGAUACCAGUCUAAUAUAUUUAAUCAAAACCCUCGCCGAGUGAUGUUCGGACCCUUGGCAGCGUCUGCGACAGG [cyycmullin] | 399 |
| GCCGUAGAUUGAAGGAGCGUUCUUCAGCAUACUUGCAGUGAUGUUGCAUUUUACAUGUAAGAACAGGUAGGUCGCAAUCUACGGC | 40 |
| ACUGGAAUUGUACUCCAGUGAUGUUGGAGGCAGGAUAUCCAGUAAAGGAGAAGGGCCAUCGCGCUAUUUAGCCGCAGGCGGCUAA [Atrilazaed] | 136 |
| UGAUCAACAUCUGAUACCAGUCGCUCGAGUAAUCAACCGUGGCUAGUGAUGUUGGCUUUUGACCCUUGGCAGCAGAAUCGUGUCA [theeternabot_sameState_KL_Theo_B_20] | 189 |
| GGACCUCAGUGAUGUUGAGGUAACACUGAUACCAGCGACUUAAUUCGCCCUUGGCAGCAGUCCACCGAGGUAUCUGAUUAGGUCU [#23 K4 Theophylline A Exclusion] | 287 |
| UGGAGUUGACGAAAAGUCAACUCCUGAGAUACCAGUGACGAAAGUCACCCUUGGCAGCUCACUGGCAGUGAUGUUGCUAAAUAAA [KL-SSTheo-A2] | 63.5 |
| UGUAAUGGCUGAGCAGCCGUGGUACGAGAUACCAGUGAUUUCGAUCACCCUUGGCAGCUCGGCGUGAGUGAUGUUCACGCUACAC [Theo A SS t12] | 207 |
| UGAUACCAGACGGCCGCCACUCCCGUAAGUCAAAGACUUACGAAGAGGGUUUUUCAGUGAUGUUGGAGGACCGGGUCUGGUAUCU [FiskerMod 17 - Jieux - Exclusion - Tryptophan B] | 506 |
| ACGUCCGGGUUAAUCGUGGGCGUGGUGGAUACCAGUUCUUUAAUGAACCCUUGGCAGCCACAUGAGUGAUGUUCAUGUGCGAUGA [KL-XTheo-A10 #analogue] | 98.2 |
| CGCGAGUCCUUUCAGUGAGUGAUGUUUACGCGAGGACCGGUACGGCCGCCACUCGAUGGUAUACCAAGACAUCAGCAGAUUGUCU [theeternabot_exclusion_KL_Trp_A_18] | 387 |
| GCGCGUCAUGUCAGCGGUGACACUGUCGAUACCAGCGCCGAAAGGCGCCCUUGGCAGCGACGUGCUGGAGUGAUGUUCCAGCGUG [#2 Exclusion - Theophylline A Attempt #25 (HarryS)] | 203 |

Same assay, conditions: Eterna round: R107; input ligand: tryptophan 2.4 mM

| Sequence | apparent KD of K4 kissing-loop reporter [nM] |
| --- | --- |
| UCAGUGAUGUUGAACAAAUAAUGGUUCCUAAAGGAUAUCCACAGAUGGAGAAGGUUAGUAGCGGCUCGCACAUCGUAGGACAAAU [theeternabot_exclusion_KL_FMN_A_1] | 526 |
| UUAGAUCAAAGAUCAGUCUUAUGGAGGGAACGAGGACCGGUACGGCCGCCACUCGAGUGAUGUUCGAGAACCCUCGUGACAAAUU [AK4 EXC Tryptophan A] | 297 |
| ACGCGCGUGCGCUGGAAAGCGCACGCGCGUCGAGGACCGGUACGGCCGCCACUCGCUCGCGCCGAGUGAUGUUCGGCCGGCGAAC [#2 SameState - Tryptophan_A Attempt #2 (HarryS)] | 645 |
| UGUACCGAGUCAGGAUAUGAACGACUGACAAAAGUCGGUCGAAUAUCCAGUGAUGUUGGAAAUAAAUCAGAAGGGACUUGGUACU [FmnBS 15 #SwitchBubble #StaticStem] | 726 |
| GUUCUGAUGGAAACAUCGGAACAUACUGAUACCAGUAUCGAUAGAUACCCUUGGCAGCAGAAUCAGUAAUAACGAGUGAUGUUCG [Ex Theophylline A K4 2] | 257 |
| GAUUCAGUGAUGUUGGAAGGCGAGCGGGAUACCAGCGGAGACUCACGCCCUUGGCAGCCCACAUAUCCCAGGUAGAUAAUAGAUC [Same State - Theophylline A (Freestyle 7)] | 180 |
| UGAUACCAGACGGCCGCCACUACACCAGUCAAAGACUGGAUGUGAUGUUUGACCAGUGAUGUUGGUAGGACCGGGUCUGGUAUCU [TrypBX 5 #Palindromic #SwitchBubble #StaticStem] | 326 |
| AAAAUAAGCCAGUGAUGUUGGGAUCCAGAUACCAGCGACGAAAGUCGCCCUUGGCAGCUGUGGACGUACAAAAUAAGUACGUCCU | 992 |
| UCUCCAGUGAUGUUGGAGACGGAUGAGGAAGGAGCGGGCACGUGCCCAGGUAGGUCGCCUCGAAAGCCCUGUAGCAUCGCGAAAC [Disoribe] | 149 |
| AAGGGCGGGACUUUCUCGCCGGAUAGAGAUACCAGCCCAGCAAUGGGCCCUUGGCAGCUCACUGACCUCAGUGAUGUUGAGGUUC [Quintege] | 185 |
| AUCGUUGUCUGAGGAUAUCGGUUAUCUGUAGUGAUGUUACAGUAUAUUGAUAUUAUAGUUUCUUUUCGAGAAGGCAGACUACGUA [JR_Nu_ExcFMNB_Sub021] | 66.4 |
| UCGCGUAAUGGAAGGAGCGGUGCCAGUGAUGUUGGAUACUGCGUGUAUUAGGUCGGAGCGCACCAGGUAGGUCGCCAUUUGGUGG [Tigedies] | 369 |
| UUUAAAUAUAGUGAUGUUAUAUAACAAUGACGAGGACCGGUACGGCCGCCACUCGAGAGAGAUAAUGGUCGUUCGAAUCGAACGC [AstrosSSTryA#6] | 410 |
| AGAGUUAUGAGAGGAUAUGCGGCUAGUACUCAAAGAGUACUAGCAGCGGAGUGAUGUUCUGCGAAAGCAGAAGGUUCAUAACUCA [#08 K4 FMN B Same State] | 1050 |
| UGAUACCAGACGGCCGCCACUAGGGCUAGCAAAGCUAGCAAGUGAUGUUUGAGGAGUGAUGUUCCUAGGACCGGGUCUGGUAUCU [TrypBX 1 #Palindromic #SwitchBubble #StaticStem] | 25.9 |
| AGUAUGUAAUAUGGCAUAUUUAGAACUGAAGGAGCGCCGAAUAAGGCAGGUAGGUCGCGGAAUCAUGAGUGAUGUUCAUGACUAU [KL-SSArg-A26] | 91.1 |
| CGCCGGAAGGCGGUCGCUCCCACUCCGGAAGGAGCGCCCGGAAGGGCAGGUAGGUCGCCGGAGUGAUGUUCCGGUGGAGGGACCG [#2 Exclusion - Arginine A Attempt #10 (Inspired by Omei)] | 109 |
| AACAACUUGUUUGUCGGGUGUUCGCGCGAUACCAGCCGAAUGGAUGGCCCUUGGCAGCGCAGCGAGUGAUGUUCGCCCGCUUGAC [Exclusion Theophylline A GF 24] | 583 |
| GGCAUGGUGGCAGGAUAUCCUAAUAGAGUGAUGUUCUAGCCCUCGUAGGCGAAAGCCUACGAGGGCGGAGAAGGGCCACCAUGCC | 431 |
| ACCAUCAAAGAUGGCCUCGACACCGCUGAUACCAGAGUGAAAACACUCCCUUGGCAGCAGGUGAGUGAUGUUCACAGUCGAAGGA [Omel KL Theo A SS B v1] | 470 |
| UUUAUAUAGUCGGCCGCCACUGGAUUAAUAUUUGUAUAAUCUAGAUCAAAGUGAUGUUUUGAGUCCAGGACCGGGACAUUUGUUA [JR_ExcTryptoB_Sub006] | 427 |

| Sequence | apparent KD of K4 kissing-loop reporter [nM] |
| --- | --- |
| CCGGACACCUCGGAUACCAGCCUGAGUGAUGUUCAAGCUGAACUCUCUUAAUAGGUCACCGGCCCUUGGCAGCCGCAUCCUAAGC [theeternabot_exclusion_KL_Theo_B_46] | 313 |
| GUCAAGGGUGCGGCCGCCACUUCUAGUGAUGUUAGUUUGUCUUCGUUCAACCGGCGUCUGCACGCAAGGACCGGGCACCAGCGAC [theeternabot_exclusion_KL_Trp_B_10] | 360 |
| CAGGUGCUGAUGCGGUGGCCGGUGGUCGUGCGAGGACCGGUACGGCCGCCACUCGCAUGAGUGAUGUUCAUGUGUCGUCGUCGUC [whbob_EX_Tryp_A_t2] | 223 |
| GACCCAGAAGCACACCUAAAGUUGACAGAUACCAGCGUCGUUUGGCGCCCUUGGCAGCUGGUCAGUGAUGUUGAUAGCUUCGACU [theeternabot_sameState_KL_Theo_A_24] | 93.6 |
| GCCAGUGAUGUUGGCAUUUCGAGCCAUGAAGGAGCGCACGGAAGUGCAGGUAGGUCGCAUGGUACUUAGGAUAUUAUCCUAAGUA [Antearxe] | 144 |
| AAGCGUGUCGCGGCCGCCACUCCUGAGUGAUGUUCAGAAAGCAGUUUUUUAUUCAGGAAAAGCGCGAGGACCGGGCGACGCCGAU [theeternabot_sameState_KL_Trp_B_1] | 515 |
| AGUGUGCAAAAGCACACUCAGUACAAGGACAAGGAUAUCUACUAAUAGAGAAGGUGUCCUUUCCUUAGUGAUGUUAAGGAGCUGA [Omei KL FMN A SS D v2] | 368 |
| AGGGCGGAGUGAUGUUCCGGCUCCCGAUUUAAGGAUAUUGCGUAAACAAGAAGGUAAAGGCGCAGCAAUAUUAUUUCGUAAGGCG [theeternabot_exclusion_KL_FMN_A_23] | 79.1 |
| AAAUAGAUCAGUCAUCCAGUGAUGUUGGAAGGAGCGUGCGAAAGCACAGGUAGGUCGCCAGAAUAAAAGUGGCUGAUCAAAAUAA | 178 |
| UGGACAUGACUCGAUAAGAGUCAAUGAGAUACCAGUGACGAAAGUCACCCUUGGCAGCUCAACUGCCAGUGAUGUUGGUAGUCCU [#SwitchBubble #StaticStem] | 566 |
| CCAUUCAUUUACGAUACCAGUCUAAUAUAUUUAAUCAAAACCCUCGCCGAGUGAUGUUCGGACCCUUGGCAGCGUCUGCGACAGG [cyycmullin] | 227 |
| GCCGUAGAUUGAAGGAGCGUUCUUCAGCAUACUUGCAGUGAUGUUGCAUUUUACAUGUAAGAACAGGUAGGUCGCAAUCUACGGC | 235 |
| ACUGGAAUUGUACUCCAGUGAUGUUGGAGGCAGGAUAUCCAGUAAAGGAGAAGGGCCAUCGCGCUAUUUAGCCGCAGGCGGCUAA [Atrilazaed] | 131 |
| UGAUCAACAUCUGAUACCAGUCGCUCGAGUAAUCAACCGUGGCUAGUGAUGUUGGCUUUUGACCCUUGGCAGCAGAAUCGUGUCA [theeternabot_sameState_KL_Theo_B_20] | 120 |
| GGACCUCAGUGAUGUUGAGGUAACACUGAUACCAGCGACUUAAUUCGCCCUUGGCAGCAGUCCACCGAGGUAUCUGAUUAGGUCU [#23 K4 Theophylline A Exclusion] | 190 |
| UGGAGUUGACGAAAAGUCAACUCCUGAGAUACCAGUGACGAAAGUCACCCUUGGCAGCUCACUGGCAGUGAUGUUGCUAAAUAAA [KL-SSTheo-A2] | 32.6 |
| UGUAAUGGCUGAGCAGCCGUGGUACGAGAUACCAGUGAUUUCGAUCACCCUUGGCAGCUCGGCGUGAGUGAUGUUCACGCUACAC [Theo A SS t12] | 199 |
| UGAUACCAGACGGCCGCCACUCCCGUAAGUCAAAGACUUACGAAGAGGGUUUUUCAGUGAUGUUGGAGGACCGGGUCUGGUAUCU [FiskerMod 17 - Jieux - Exclusion - Tryptophan B] | 824 |
| ACGUCCGGGUUAAUCGUGGGCGUGGUGGAUACCAGUUCUUUAAUGAACCCUUGGCAGCCACAUGAGUGAUGUUCAUGUGCGAUGA [KL-XTheo-A10 #analogue] | 95.4 |
| CGCGAGUCCUUUCAGUGAGUGAUGUUUACGCGAGGACCGGUACGGCCGCCACUCGAUGGUAUACCAAGACAUCAGCAGAUUGUCU [theeternabot_exclusion_KL_Trp_A_18] | 342 |
| GCGCGUCAUGUCAGCGGUGACACUGUCGAUACCAGCGCCGAAAGGCGCCCUUGGCAGCGACGUGCUGGAGUGAUGUUCCAGCGUG [#2 Exclusion - Theophylline A Attempt #25 (HarryS)] | 184 |
